Assay results from publication PMC8615460.
Ends that are not written are not given here.

What was measured:
[1] = target: San1_(1–303) (lysine residues changed to arginines) (Saccharomyces cerevisiae) (UniProt P22470)
[2] = target: San1_(1–303) (lysine residues changed to arginines) (Saccharomyces cerevisiae) (UniProt P22470); remark: listed apart in the source
[3] = target: full-length San1 (lysine residues changed to arginines) (Saccharomyces cerevisiae) (UniProt P22470)

B1: San1 peptide, unlabeled (peptide)
peptide: Ac-CGSRRGSYNASSGEQMLSRTGFFLVLIVGQPLHNPVK
limited proteolysis with chymotrypsin: stability of San1(1-303) with peptide substrate against without substrate [1]: 30 fold | limited proteolysis: fraction of radiolabeled San1(1-303) intact with chymotrypsin after 30 min, with excess peptide substrate [1]: 50%

B2: San1 peptide, radiolabeled (peptide)
peptide: Ac-CGSRRGSYNASSGEQMLSRTGFFLVLIVGQPLHNPVK
modifications: also: 32P phosphate added by cAMP-dependent protein kinase, residue not given here
multi-turnover ubiquitylation: fraction of peptide substrate ubiquitylated, same incubation period and 18:1 substrate to ligase ratio [2]: 15% | multi-turnover ubiquitylation: fraction of peptide substrate ubiquitylated, 5 to 15 min, substrate to San1 ratios 6:1 to 18:1 [3]: 50%
